# Source: patent publication US20130316376
# Test system: His6ZQGRep4CT
substance,measurement,value
Protease 3C,Protease 3C cleavage of a Z-Rep4CT fiber (SDS-PAGE of the cleavage supernatant),"the Protease 3C cleavage site is available for cleavage in Z-Rep4CT fibers and therefore, the HZ part can be removed"
